Tested on: K4 kissing-loop RNA reporter
Experiment: apparent KD of K4 kissing-loop reporter; higher = weaker reporter binding
Details: Eterna round: R107
Description: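 RNA-MaP round R107: designed RNA switches with theophylline, tryptophan, arginine or FMN aptamers are transcribed on-chip within common flanks. They are titrated with a labelled K4 kissing-loop RNA reporter in RNA-MaP buffer (100 mM Tris pH 7.5, 80 mM KCl, 4 mM MgCl2), without ligand or with the indicated ligand. Median apparent KD per design.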

[1] = input ligand: theophylline 20 uM
[2] = input ligand: tryptophan 2.4 mM
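Note: bound reporter read as fluorescence of individual clusters on recovered sequencing chips by microscopy, with normalized cluster intensities fitted with a binding model.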

Sequence	apparent KD of K4 kissing-loop reporter (input ligand: FMN 200 uM)	apparent KD of K4 kissing-loop reporter (input ligand: arginine 13.2 mM)	apparent KD of K4 kissing-loop reporter (input ligand: none)	apparent KD of K4 kissing-loop reporter [1]	apparent KD of K4 kissing-loop reporter [2]
AAUCUCCUAGUGAUGUUAGGUUUAAGGGAAGGAGCGAGGUAAUACUCAGGUAGGUCGCCCACAUGCAUUAAUAAAUCAAUUUAAU	102 nM	73.8 nM	91 nM	98.8 nM	84.2 nM
AAUGCAUAGUGAAGGAGCGCGAUAAGCAGUGAUGUUGCUUAGCUAUUAUUCAUUAUUUUAACGCAGGUAGGUCGCACUUUGCAUA [JR_ExcArginiB_Sub015]	131 nM	127 nM	128 nM	151 nM	128 nM
AAUGCAUAGUGAAGGAGCGCGAUAAGCAGUGAUGUUGCUUAGUUAUAAGUGUUUAUUUAUUCGCAGGUAGGUCGCACUUUGCAUA [JR_ExcArginiB_Sub019]	147 nM	111 nM	124 nM	117 nM	132 nM
AAUGCAUAGUGAAGGAGCGCGAUAAGCAGUGAUGUUGCUUAGUUAUUAGUGUUUAUUUAUACGCAGGUAGGUCGCACUUUGCAUA [JR_ExcArginiB_Sub018]	115 nM	103 nM	109 nM	105 nM	107 nM
AAUGCAUUGUGAAGGAGCGCGAUAGGCAGUGAUGUUGCUUACAUUUUAUUAUGUUUUAAAACGCAGGUAGGUCGCACUUUGCAUA [JR_Nu_SSArginiB_Sub030]	187 nM	163 nM	183 nM	193 nM	162 nM
AAUGUACAGGGAAGGAGCGUCGUCCAGUGAUGUUGGAGUUAAAUACCAGUGAUGUUGGUUAGGCAGGUAGGUCGCCCUAAAGUAU [#08 K4 Arginine B Exclusion]	96.1 nM	71.5 nM	86.9 nM	80 nM	75.2 nM
AAUGUGCAGGGAAGGAGCGUAGUCCAGUGCUGUUGGAGUUAGAUACCAGUGAUGUUGGUUAUACAGGUAGGUCGCCCUAGAGCGC [whbob_Ex_Arginine_B_2th162]	114 nM	119 nM	124 nM	141 nM	96.3 nM
AAUGUUAGCAAAGGAUAUCUGAUGAGUGAUGUUUACGGACCGUUUGCGUUUCAUUACACGCAGCUCAGAGAAGGUUGGUGUGCAG [theeternabot_exclusion_KL_FMN_B_49]	1230 nM	866 nM	1180 nM	890 nM	961 nM
AAUUAAUGUAUAGAUUAUAUACAUUAAUCAGAGGAUAUGCAUUAUUGCAGAAGGCUGAAUGCAGUGAUGUUGCAAUAAUAAUUUA [JR_SSFMNA_Sub003]	60.6 nM	229 nM	186 nM	313 nM	151 nM
AAUUAGCCGUAAGAAUAGUGAUGUUAUUCACGAGGACCGGUACGGCCGCCACUCGAUAUUGGAAUAUUGAAUUUUUUAUUCUAAA [JR_SSTryptoA_Sub009]	524 nM	474 nM	552 nM	577 nM	291 nM
AAUUGGCAGUGAUGUUGUCAAGGACAUACGAAGGAUAUAAGUGAAGUUAGAAGGUCGACCAUCACUUCUUUGCCAUUUGCAUGAC [theeternabot_exclusion_KL_FMN_A_20]	238 nM	214 nM	207 nM	243 nM	193 nM
AAUUUUAAUAAUAAAUAAUAAAUAAAUGAUACCAGUAUUUUUUUUUACCCUUGGCAGCAUAUAUAAGGGCAGUGAUGUUGCCAAA [Same State - Theophylline A]	145 nM	85.2 nM	119 nM	111 nM	131 nM
AAUUUUAAUAAUAAAUAAUAAAUAAAUGAUACCAGUAUUUUUUUUUACCCUUGGCAGCGUAUAUAAGGGCAGUGAUGUUGUCAGA [whbob_SS_Theo_A_w59]	223 nM	144 nM	212 nM	232 nM	164 nM
ACAAGGGAUCCAGAUACCAGCACUCAAGGAGCUAUAUCAGCGAGUGAUGUUCGUUCAUAGUGCCCUUGGCAGCUGUACUUCCUUG [Essoengeis]	115 nM	107 nM	123 nM	114 nM	110 nM
ACACGGGUCUCGGCCGCCACUCUGCCUACCACCAUUAGUGCCAGUGAUGUUGGCAGGUGAGGGCUGAGGACCGGGAGAUCCAUAC [Zaremais]	140 nM	124 nM	136 nM	122 nM	107 nM
ACACGUGUGGCAGGAUAUCGGGCUGUGGAUCGGCUGGUUACUUAUUCUCGACCAGUGAUGUUGGUACGAGAAGGGCUACCCAGAA [Cetebera]	145 nM	124 nM	139 nM	135 nM	116 nM
ACACUAUCGUCAUAGACGGUAGUGACAUCUCAGGAUAUAAGUGAUGUUAGAAGGGAGAAAAUCUUAGGUAUCGAAUAGAUACCAA [FmnA 8 #K4BetweenAptamer #OpenEnded]	415 nM	1100 nM	1270 nM	821 nM	1380 nM
ACACUUUACGUAGGAUAUGCGACGAGUGAUGUUCGUCAGGCGGCUUUAGAUUAAACAAGCCGCCUAGCAGAAGGACGGGCAGUGU [Zaorleon]	126 nM	147 nM	188 nM	178 nM	144 nM
ACACUUUACGUAGGAUAUGCGACGAGUGAUGUUCGUCAGGCGGCUUUAGCUUAAGCAAGCCGCCUAGCAGAAGGACGGGCAGUGU [Bigemalaza]	139 nM	163 nM	179 nM	185 nM	173 nM
ACAGAGGUAACCUGCAGUGAUGUUGCGGAUACCAGCUCACGAAACAGCCCUUGGCAGCCGCCGUCACUAACACGGUGGAUACAGU [theeternabot_exclusion_KL_Theo_A_49]	257 nM	168 nM	230 nM	178 nM	181 nM
ACAGAGUGAUGUUUUGUAAAGAUCUUUGAUACCAGCGCCAGAAAUCGCCCUUGGCAGCAAGCCGUACAUACGUUGAUUGAUCCAC [theeternabot_exclusion_KL_Theo_A_14]	738 nM	694 nM	926 nM	758 nM	577 nM

Sequence	apparent KD of K4 kissing-loop reporter (input ligand: FMN 200 uM)	apparent KD of K4 kissing-loop reporter (input ligand: arginine 13.2 mM)	apparent KD of K4 kissing-loop reporter (input ligand: none)	apparent KD of K4 kissing-loop reporter [1]	apparent KD of K4 kissing-loop reporter [2]
ACAGAUGCUAGUGAUACCAGACUAGCACUACGUAAUAUGUCAAGUGAUGUUUGACAACUAGUCCCUUGGCAGCGCGAUACGUCUG [Theo B SS t2]	297 nM	353 nM	295 nM	305 nM	261 nM
ACAGUAGUGAUGUCUUUGAUAUUACUACUGCGAGGACCGGUACGGCCGCCACUCGCCCAUUUUUGGGUUGAGAGUGAUGUUCUCA [Skye_SS_TA2]	594 nM	345 nM	474 nM	482 nM	588 nM
ACAGUCCCGCAUGGUGCGAACGAGAGAUGGCGAGGACCGGUACGGCCGCCACUCGAACAAGUGAUGUUUGAUAUCAUUUUUCUAC [theeternabot_sameState_KL_Trp_A_10]	98.6 nM	83.3 nM	117 nM	90.7 nM	85.4 nM
ACAGUCGGCUGUGAUACCAGUCGUAUAACAACAUGUUGCAGUGAUGUUGCGAGAUAGGAUGACCCUUGGCAGCACUCAGUACGAC [Same State Theophylline B GF11]	324 nM	101 nM	248 nM	328 nM	150 nM
ACAUCGGUUGAGAGUGAUGUUCCUUGUGUUCGAGGACCGGUACGGCCGCCACUCGGGUAGAAAAUAACAGAUGUGUUUGAUUUUU [BDazzled - #16 SS Tryptophan A]	163 nM	88.4 nM	144 nM	308 nM	244 nM
ACAUGCCCAGUGAUGUUGGAUAAAUAUGAAGGAGCGUGCGAAAGCACAGGUAGGUCGCAUAAUAGCAUGAGUCACGAAAGUGACA [#18 K4 Arginine A Same State]	327 nM	291 nM	356 nM	278 nM	209 nM
ACAUGUGCCAGUGAUGUUGGCGUACGUGAUACCAGACGAAUAAAAGUCCCUUGGCAGCACAAAUAAGCCAAGAUAGAUGAAUGAU [#03 K4 Theophylline A Exclusion]	191 nM	159 nM	203 nM	242 nM	189 nM
ACAUUUUCAAGUGAUACCAGACAUUUUUUUUUCUUUAUUUAUGCUAAGUGAUGUUUAGCAGUCCCUUGGCAGCACUAUUUAACUA [JR_Nu_SSTheophyB_Sub031]	121 nM	101 nM	93.2 nM	169 nM	115 nM
ACCAUCAAAGAUGGCCAGGACUCCGCUGAUACCAGAGUGAAAACACUCCCUUGGCAGCAGGUGAGUGAUGUUCACAAGUCCUGGA [Omel KL Theo A SS B v5]	1160 nM	693 nM	1860 nM	981 nM	857 nM
ACCGGACAAGAGGUGUCAGUGAUGUUGGCGCGAGGACCGGUACGGCCGCCACUCGAGGAAAGCGGUCACGCCCUGGUAGGACUGG [theeternabot_exclusion_KL_Trp_A_22]	169 nM	106 nM	144 nM	128 nM	251 nM
ACCUUAUUUGCCAGUGAUGUUGGACAGGAAGGAGCGGGCAUAAGCCCAGGUAGGUCGCCUGUCAACUUUCUUAUAGCCCAAAGGU [KL-XArg-A18]	308 nM	253 nM	396 nM	314 nM	294 nM
ACGAAGGAUGGAAGGAGCGCUCGUCAGUCCUGCGAGUGAUGUUCGUGGGUAAAUAGUCGCGAGCAGGUAGGUCGCCAUCUUGAGC [Isarteza]	133 nM	104 nM	119 nM	112 nM	108 nM
ACGAUCUUCGGCCUAUGAGUGAUGUUUAUGCGAGGACCGGUACGGCCGCCACUCGGGCGGUUAUUCACUACGCCUCUUCCGUCGA [theeternabot_exclusion_KL_Trp_A_37]	900 nM	435 nM	1040 nM	517 nM	649 nM
ACGCGCGCGAGUGAUGUUCGGAGCGGCUGGCAGGAUAUGGAGCAAUCCAGAAGGGUCGUGGCUGCUGGUAGGAAACUACUGGCAG [#2 Exclusion - FMN A Attempt #3 (HarryS)]	135 nM	239 nM	350 nM	330 nM	299 nM
ACGCGCGCGAGUGAUGUUCGGAGCGGCUGGCAGGAUAUGUAGCAAUGCAGAAGGGUCGUGGCGGCGCGGCCGUAAGGCGGCGCCG [#2 Exclusion - FMN A Attempt #14 (HarryS)]	173 nM	310 nM	404 nM	535 nM	237 nM
ACGUAGUUCUAGGAUACCAGCCAAAUAGCCAGGACGAGAGUCCUGGCUGCCAGUGAUGUUGGCCCUUGGCAGCCUAGAACUACGA [Theo B Ex Mod Omei v10]	166 nM	134 nM	138 nM	233 nM	146 nM
ACGUAGUUCUAGGAUACCAGCCAAAUAGCCAGGACGAGAGUCCUGGCUGCCAGUGAUGUUGGCCCUUGGCAGCCUAGAUCUUCUU [zmodel 1]	161 nM	136 nM	144 nM	218 nM	149 nM
ACGUAGUUCUAGGAUACCAGCCAAGGAGCCCAGGACAAAAGUCCUGGCGCCAGUGAUGUUGGCCCUUGGCAGCCUAGAACUACGA [Omei KL Theo B Exc B v4]	181 nM	157 nM	157 nM	136 nM	151 nM
ACGUCCGGAUUAAUCGUGGGCAUGGUGGAUACCAGUUCUUUAAUGAACCCUUGGCAGCCACAUGAGUGAUGUUCAUGUGCGAUGA [KL-XTheo-A9 #analogue]	145 nM	117 nM	141 nM	187 nM	140 nM
ACGUGCACCAGUGAUGUUGGAAAAUAUGAAGGAGCGGGCGAAAGCCCAGGUAGGUCGCAUAAUAGCACGAGCCACGAAAGUGGCA [#SwitchBubble 20 #K4Early]	125 nM	137 nM	184 nM	132 nM	126 nM
ACUGAGCAUGCGGCCGCCACUUCAGAACGUCGCCCGGAGGGCGACGCCUCCGCAGUGAUGUUGCGGAGGACCGGGCAUGUUCAGA [Omei KL Tryp B Exc A v4]	90.4 nM	78.4 nM	99.8 nM	77.9 nM	85.3 nM
